T1: human D6 (human, UniProt O00590 1-384)
T1 construct: Full-length human D6 expressed in CHO, Hos.CD4, HEK 293, K293 or L1.2 cells; Endogenous on THP-1 cells; also called human D6 receptor; wild type human D6
T1 sequence: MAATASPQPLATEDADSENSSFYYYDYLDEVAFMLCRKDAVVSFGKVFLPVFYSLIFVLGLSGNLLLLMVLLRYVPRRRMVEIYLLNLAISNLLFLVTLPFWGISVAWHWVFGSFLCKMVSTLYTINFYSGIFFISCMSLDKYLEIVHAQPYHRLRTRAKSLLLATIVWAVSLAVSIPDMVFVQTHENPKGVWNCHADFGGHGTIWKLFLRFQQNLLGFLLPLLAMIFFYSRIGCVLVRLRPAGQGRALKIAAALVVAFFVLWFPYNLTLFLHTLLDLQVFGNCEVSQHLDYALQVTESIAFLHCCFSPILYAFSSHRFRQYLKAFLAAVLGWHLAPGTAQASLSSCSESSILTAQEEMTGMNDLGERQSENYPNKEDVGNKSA

T2: murine D6 (murine, UniProt O08707 1-378)
T2 construct: Endogenous on B-end cells in the polyclonal antibody staining; also called murine D6 receptor; mouse D6
T2 sequence: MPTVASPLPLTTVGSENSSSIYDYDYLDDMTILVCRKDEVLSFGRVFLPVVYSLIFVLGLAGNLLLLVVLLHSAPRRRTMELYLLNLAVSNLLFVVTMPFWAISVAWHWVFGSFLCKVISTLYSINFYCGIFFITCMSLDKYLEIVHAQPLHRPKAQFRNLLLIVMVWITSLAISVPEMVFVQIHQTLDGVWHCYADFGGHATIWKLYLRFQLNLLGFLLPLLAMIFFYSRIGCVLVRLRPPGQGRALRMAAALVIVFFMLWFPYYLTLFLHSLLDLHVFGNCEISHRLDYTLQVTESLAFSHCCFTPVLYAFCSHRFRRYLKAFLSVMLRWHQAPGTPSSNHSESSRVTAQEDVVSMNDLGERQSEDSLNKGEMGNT

T3: human CCR5 (human, UniProt P51681 1-352 at identity 1.00))
T3 chain: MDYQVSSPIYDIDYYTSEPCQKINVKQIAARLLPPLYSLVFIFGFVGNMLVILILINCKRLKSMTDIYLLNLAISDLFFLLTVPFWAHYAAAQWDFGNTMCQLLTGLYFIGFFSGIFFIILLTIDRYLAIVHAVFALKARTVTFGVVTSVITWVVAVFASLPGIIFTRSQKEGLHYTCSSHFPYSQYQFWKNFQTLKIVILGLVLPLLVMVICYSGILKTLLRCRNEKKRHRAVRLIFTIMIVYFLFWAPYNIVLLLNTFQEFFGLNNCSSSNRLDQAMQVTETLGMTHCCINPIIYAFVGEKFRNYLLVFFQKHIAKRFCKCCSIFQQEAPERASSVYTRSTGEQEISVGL

B1: murine MIP-1α (ligand, UniProt P10855 24-92, looked up)
chain: APYGADTPTACCFSYSRKIPRQFIVDYFETSSLCSQPGVIFLTKRNRQICADSKETWVQEYITDLELNA
modifications: also: radioiodinated (125I) when used as tracer
notes: also called mMIP-1α
B2: human D6 mutant K142R, E145A (receptor)
chain: MAATASPQPLATEDADSENSSFYYYDYLDEVAFMLCRKDAVVSFGKVFLPVFYSLIFVLGLSGNLLLLMVLLRYVPRRRMVEIYLLNLAISNLLFLVTLPFWGISVAWHWVFGSFLCKMVSTLYTINFYSGIFFISCMSLDRYLAIVHAQPYHRLRTRAKSLLLATIVWAVSLAVSIPDMVFVQTHENPKGVWNCHADFGGHGTIWKLFLRFQQNLLGFLLPLLAMIFFYSRIGCVLVRLRPAGQGRALKIAAALVVAFFVLWFPYNLTLFLHTLLDLQVFGNCEVSQHLDYALQVTESIAFLHCCFSPILYAFSSHRFRQYLKAFLAAVLGWHLAPGTAQASLSSCSESSILTAQEEMTGMNDLGERQSENYPNKEDVGNKSA
notes: Expressed in HEK 293 cells; also called K142R,E145A mutant
B3: human D6 triple mutant N92D, K142R, E145A (receptor)
chain: MAATASPQPLATEDADSENSSFYYYDYLDEVAFMLCRKDAVVSFGKVFLPVFYSLIFVLGLSGNLLLLMVLLRYVPRRRMVEIYLLNLAISDLLFLVTLPFWGISVAWHWVFGSFLCKMVSTLYTINFYSGIFFISCMSLDRYLAIVHAQPYHRLRTRAKSLLLATIVWAVSLAVSIPDMVFVQTHENPKGVWNCHADFGGHGTIWKLFLRFQQNLLGFLLPLLAMIFFYSRIGCVLVRLRPAGQGRALKIAAALVVAFFVLWFPYNLTLFLHTLLDLQVFGNCEVSQHLDYALQVTESIAFLHCCFSPILYAFSSHRFRQYLKAFLAAVLGWHLAPGTAQASLSSCSESSILTAQEEMTGMNDLGERQSENYPNKEDVGNKSA
notes: Expressed in HEK 293 cells

Legend:
human D6 = molecular target: T1, human D6; assay: displacement of 125I-murine MIP-1α by unlabeled chemokine on cells expressing human D6; LIGAND analysis
Description: (§1) Stably transfected CHO cells were plated at 10^5 cells/well in 24-well plates and incubated overnight at 37° C. After washing with warm PBS, the cells were incubated in 250 μl of binding buffer (special liquid medium plus 10% fetal calf serum, 4 mM glutamine, 0.2% sodium azide, 25 mM HEPES (pH 7.4)) containing variable concentrations of radioiodinated MIP-1 and cold competitor chemokine. Binding proceeded for 90 minutes at 22° C., then each well washed three times in ice-cold PBS and the cell monolayer was then solubilized by the addition of 0.5 ml of 1% SDS. Lysed cells were transferred to a counting vial and bound radioactivity counted for 1 minute in Beckman Gamma 5500B counter. Each data point was assayed in triplicate and each experiment performed at least twice of accuracy. Data was analyzed using Scahot and Scafit programs in LIGAND software (Munson et al. (1980) Anal. Biochem. 107:220-239).
The receptor binding assays were carried out as described above for the displacement analysis of murine D6 with cells being plated at 2×10⁵ cells/well in 24-well plates and incubated overnight at 37° C. prior to binding analysis.

[1] = molecular target: B2; assay: cell-based or functional assay
[2] = molecular target: B3; assay: cell-based or functional assay
murine D6 [3] = molecular target: T2, murine D6; assay: binding assays on CHO cells expressing murine D6
Description: as §1

murine D6 [4] = molecular target: T2, murine D6; assay: competition with 125I-murine MIP-1α on CHO cells stably expressing murine D6; LIGAND analysis
Description: as §1

human CCR5 = molecular target: T3, human CCR5; assay: cell-based or functional assay
murine D6 [5] = molecular target: T2, murine D6; assay: displacement of radiolabeled murine MIP-1α from murine D6 on transfected cells
Description: as §1

murine MIP-1α = molecular target: B1; assay: radioligand binding on transfected cells

Binder	Kd (human D6)	Kd (murine D6 [4])	further results
human MCP-4 (ligand) not shown	5.9 nM	–	–
B1	0.92 nM	–	[Ca++] [1]: 28.2 nmol/L; [Ca++] [2]: 11.3 nmol/L; binding result (murine D6 [3]): binds
human MCP-3 (ligand, also called hMCP-3) not shown	1.2 nM	5 nM	–
human MIP-1α (ligand, UniProt P10147 24-92, looked up, also called hMIP-1α) SLAADTPTACCFSYTSRQIPQNFIADYFETSSQCSKPGVIFLTKRSRQVCADPSEEWVQKYVSDLELSA	64 nM	–	[Ca++] (human CCR5): 412 nmol/L
murine MCP-5 (ligand, UniProt Q62401 23-104, looked up, also called mMCP-5) GPDAVSTPVTCCYNVVKQKIHVRKLKSYRRITSSQCPREAVIFRTILDKEICADPKEKWVKNSINHLDKTSQTFILEPSCLG	6.3 nM	–	–
KC (ligand, UniProt P12850 25-96, looked up) APIANELRCQCLQTMAGIHLKNIQSLKVLPSGPHCTQTEVIATLKNGREACLDPEAPLVQKIVQKMLKGVPK	–	–	binding result (murine D6 [5]): no binding
murine Eotaxin (ligand, UniProt P48298 24-97, looked up) HPGSIPTSCCFIMTSKKIPNTLLKSYKRITNNRCTLKAIVFKTRLGKEICADPKKKWVQDATKHLDQKLQTPKP	30 nM	–	–
human Eotaxin (ligand) not shown	46 nM	–	–
murine JE (ligand, They are treated here as one protein (JE is the murine MCP-1); also called murine MCP-1) not shown	613 nM	1.5 nM	–
human MCP-2 (ligand, UniProt P80075 24-99, looked up, also called hMCP-2) QPDSVSIPITCCFNVINRKIPIQRLESYTRITNIQCPKEAVIFKTKRGKEVCADPKERWVRDSMKHLDQIFQNLKP	768 nM	–	[Ca++] [1]: 22.9 nmol/L; [Ca++] [2]: 13.7 nmol/L
human HCC1 (ligand, UniProt Q16627 20-93, looked up) TKTESSSRGPYHPSECCFTYTTYKIPRQRIMDYYETNSQCSKPGIVFITKRGHSVCTNPSDKWVQDYIKDMKEN	27.2 nM	–	–
human MIP-1β (ligand, UniProt P13236 24-92, looked up) APMGSDPPTACCFSYTARKLPRNFVVDYYETSSLCSQPAVVFQTKRSKQVCADPSESWVQEYVYDLELN	1.7 nM	0.26 nM	–
murine MIP-1β (ligand, UniProt P14097 24-92, looked up, also called mMIP-1β; murine M1β) APMGSDPPTSCCFSYTSRQLHRSFVMDYYETSSLCSKPAVVFLTKRGRQICANPSEPWVTEYMSDLELN	0.755 nM	0.77 nM	–
human RANTES (ligand, UniProt P13501 24-91, looked up, also called hRANTES; HRANTES) SPYSSDTTPCCFAYIARPLPRAHIKEYFYTSGKCSNPAVVFVTRKNRQVCANPEKKWVREYINSLEMS	3.6 nM	2 nM	[Ca++] [1]: 19.3 nmol/L
B2	–	–	binding result (murine MIP-1α): binds
B3	–	–	binding result (murine MIP-1α): binds
